These results are taken from patent US20050085420A1, “Method of modulating apoptosis and compositions thereof” (priority 2003, published 2005).

The assay has as its target T1, N-terminal HA-tagged VDAC2 (murine, UniProt Q60930 1-295).
T1 construct: also called HA-VDAC2; hemagglutinin (HA)-tagged version of VDAC2; not shown: N-terminal HA tag
T1 sequence (looked up): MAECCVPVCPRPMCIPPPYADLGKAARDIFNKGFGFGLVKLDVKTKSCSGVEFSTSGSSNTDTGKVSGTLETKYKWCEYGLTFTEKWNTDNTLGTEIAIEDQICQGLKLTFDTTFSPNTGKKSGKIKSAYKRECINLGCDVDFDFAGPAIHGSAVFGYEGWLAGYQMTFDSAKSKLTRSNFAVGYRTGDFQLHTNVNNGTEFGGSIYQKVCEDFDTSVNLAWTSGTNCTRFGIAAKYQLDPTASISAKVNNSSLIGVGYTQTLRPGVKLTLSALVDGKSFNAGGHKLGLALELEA
Briefly: anti-HA immunoprecipitation in 1% CHAPS, anti-BID immunoblot. As to the method: The activated form of BID, p15 tBID, was first examined in cells expressing only VDAC2 and not the other isoforms, VDAC1 or VDAC3. Mitochondria isolated from vdac1 -/- , vdac3 -/- mouse fibroblasts with or without retroviral transduction of N-terminal HA-tagged VDAC2 were incubated with in vitro transcribed, translated wild-type or mutant tBID (mIII.4, G94E) protein at 30° C. for 30 min, followed by anti-HA immunoprecipitation in 1% CHAPS buffer.

B1: mutant tBID mIII.4 (G94E) (other, UniProt P70444 60-195, looked up)
chain: GSQASRSFNQGRIEPDSESQEEIIHNIARHLAQIEDEMDHNIQPTLVRQLAAQFMNGSLSEEDKRNCLAKALDEVKTAFPRDMENDKAMLIMTMLLAKKVASHAPSLLRDVFHTTVNFINQNLFSYVRNLVRNEMD
notes: domain: p15 tBID; also called m111.4 mutant; m l 11.4
On to B1, for which the binding result is listed as “no binding”.
